From article doi:10.1101/2025.10.09.681382

Biological target: Rubisco (Chlamydomonas reinhardtii (endogenous, purified from cells)) (UniProt P00877)
Assay: fluorescence correlation spectroscopy; 20 nM EPYC1-GFP mixed with 2 μM Rubisco (no phase separation at this concentration); diffusion coefficient of EPYC1-GFP from a single-species fit

diffusion coefficient of EPYC1-GFP with Rubisco (60 μm^2/s without Rubisco): 41 μm^2/s
Substance: EPYC1-GFP, unphosphorylated (mock-treated) (natural protein)
